Paper PMC11543927, “Subtleties in Clathrin heavy chain binding boxes provide selectivity among adaptor proteins of budding yeast” (Nature Communications, 2024)
Changes are numbered by the printed parent chain.

T1: Saccharomyces cerevisiae clathrin heavy chain N-terminal domain (ScChc-NTD, 1-369) (Saccharomyces cerevisiae, UniProt P22137 1-369)
T1 construct: Clathrin heavy chain N-terminal domain, Saccharomyces cerevisiae, residues 1-369; pETM-30 vector with a His-GST tag and a TEV cleavage site; also called WT NTD; source: E. coli BL21 (DE3), purified (Ni-NTA, TEV cleavage, reverse Ni-NTA, SEC)
T1 sequence (looked up): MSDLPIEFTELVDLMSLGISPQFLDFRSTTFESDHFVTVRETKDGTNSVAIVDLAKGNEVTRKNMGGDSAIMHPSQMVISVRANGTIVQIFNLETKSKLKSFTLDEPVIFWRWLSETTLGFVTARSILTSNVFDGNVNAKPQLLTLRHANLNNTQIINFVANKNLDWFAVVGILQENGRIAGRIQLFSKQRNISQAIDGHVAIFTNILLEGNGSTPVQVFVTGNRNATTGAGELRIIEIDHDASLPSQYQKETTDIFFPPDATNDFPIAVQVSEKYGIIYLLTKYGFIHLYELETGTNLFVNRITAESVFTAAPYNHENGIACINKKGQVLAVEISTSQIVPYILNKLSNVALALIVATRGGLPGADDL

T2: ScChc-NTD W-box mutant (F26A, Q155A) (Saccharomyces cerevisiae, UniProt P22137 1-369, F26A | Q155A)
T2 construct: Clathrin heavy chain N-terminal domain, Saccharomyces cerevisiae, residues 1-369, W-box mutant; also called W mutant
T2 sequence (looked up): T1 sequence (looked up) with F26A, Q155A

T3: ScChc-NTD Clathrin and Arrestin box mutant (Cla+Arr) (Saccharomyces cerevisiae, UniProt P22137 1-369, K63E | I87D | Q89A | K98E | Q195A | I197T | K251E)
T3 construct: Clathrin heavy chain N-terminal domain, Saccharomyces cerevisiae, residues 1-369, Clathrin and Arrestin box mutant
T3 sequence (looked up): T1 sequence (looked up) with K63E, I87D, Q89A, K98E, Q195A, I197T, K251E

B1: Ent1 CBM peptide (GYTLIDL) (peptide)
peptide: GYTLIDL
notes: also called Ent1 peptide; source: synthetic peptide, bought: NovoProLabs
B2: Ent2 CBM peptide (GVSLIDL) (peptide)
peptide: GVSLIDL
notes: also called Ent2 peptide; source: synthetic peptide, bought: NovoProLabs

Legend:
Conditions in all cases: both partners purified
[1] = target: T1, Saccharomyces cerevisiae clathrin heavy …; assay: nanoDSF thermal shift; ScChc-NTD 8 µM incubated with eleven peptide concentrations (1:1 dilutions) for 15 min, heated 20-95 °C at 1 °C/min, SEC buffer (50 mM Tris pH 9, 150 mM NaCl, 0.5 mM TCEP); apparent KD from the Tm shift model, one to one binding assumed, global average over all boxes
[2] = target: T2, ScChc-NTD W-box mutant (F26A, Q155A); assay: nanoDSF thermal shift; ScChc-NTD mutants 10 µM with Ent1 or Ent2 peptide, thermal ramp up to 80 °C; apparent KD from the Tm shift model
[3] = target: T3, ScChc-NTD Clathrin and Arrestin box …; assay: as above

Row | Binder | Kd [1] [µM] | binding result [2] | Kd [3] [µM] | fold decrease in affinity against WT NTD [3] [fold]
1 | B1 | ~138 | binds | ~2050 | –
2 | B2 | ~177 | binds | – | ~5
